# Data reported in patent US20200347137A1 (SYSTIMMUNE, published 2020).
# B1: Fc-PD224D1 scFv IgG1 null (Fc fusion, not shown: a dimerising Fc or GST; small tags and cut ends)
# scFv: EVQLVESGGGLVQPGGSLRLSCTASGFSLSSYAMSWVRQAPGKGLEYIGYIGDTTGIAYASWANGRFTISKDNTKNTVDLQMNSLRAEDTAVYYCARGWSYLDIWGQGTLVTVSSGGGGSGGGGSGGGGSGGGGSALVMTQSPSSLSASVGDRVTITCQASQNIYSNLAWYQQKPGKVPKLLIYQASTLASGVPSRFSGSGYGTDFTLTISSLQPEDVATYYCQGGYYSAALNTFGGGTKVEIK
# notes: a component control of the bispecific antibody
# B2: PL004B9 mAb (antibody, V domains shown)
# VH: EVQLVESGGGLVQPGGSLRLSCTVSGIDLSVINMGWVRQAPGKGLEWIGTITYVGNTYYASWAKGRFTISKTSTTVDLKITSPTTEDTAVYYCARESGTIYYSYFNLWGQGTLVTVSS
# VL: AFELTQSPSSLSASVGDRVTIKCQASESISNYLSWYQQIPGKVPKLLIYYASNLASGVPSRFSGSGSGTDFTLTISSLQPEDVATYYCQSYYGGGSAYTFGGGTKVEIK
# notes: Anti-PD-L1 clone tested in mAb format
# B3: PL221G5 mAb (antibody, V domains shown)
# VH: EVQLLESGGGLVQPGGSLRLSCAASGFSFSSGYDMCWVRQAPGKGLEWIACIAAGSAGITYDANWAKGRFTISRDNSKNTLYLQMNSLRAEDTAVYYCARSAFSFDYAMDLWGQGTLVTVSS
# VL: DIQMTQSPSTLSASVGDRVTITCQASQSISSHLNWYQQKPGKAPKLLIYKASTLASGVPSRFSGSGSGTEFTLTISSLQPDDFATYYCQQGYSWGNVDNVFGGGTKVEIK
# notes: as for B2
# B4: PL221G5 Fc-scFv (Fc fusion)
# scFv: EVQLLESGGGLVQPGGSLRLSCAASGFSFSSGYDMCWVRQAPGKGLEWIACIAAGSAGITYDANWAKGRFTISRDNSKNTLYLQMNSLRAEDTAVYYCARSAFSFDYAMDLWGQGTLVTVSSGGGGSGGGGSGGGGSGGGGSDIQMTQSPSTLSASVGDRVTITCQASQSISSHLNWYQQKPGKAPKLLIYKASTLASGVPSRFSGSGSGTEFTLTISSLQPDDFATYYCQQGYSWGNVDNVFGGGTKVEIK
# notes: scFv at the C-terminus of an Fc; The Fc part is not specified; not shown: The Fc part and the linker joining it to the scFv
# B5: PL230C6 mAb (antibody, V domains shown)
# VH: QSVEESGGGLVQPGGSLRLSCTASGIDLNTYDMIWVRQAPGKGLEWVGIITYSGSRYYANWAKGRFTISKDNTKNTVYLQMNSLRAEDTAVYYCARDYMSGSHLWGQGTLVTVSS
# VL: AYDMTQSPSSVSASVGDRVTIKCQASEDIYSFLAWYQQKPGKAPKLLIHSASSLASGVPSRFSGSGSGTDFTLTISSLQPEDFATYYCQQGYGKNNVDNAFGGGTKVEIK
# notes: also called PL23006
# B6: PL230C6 Fc-scFv (Fc fusion)
# scFv: QSVEESGGGLVQPGGSLRLSCTASGIDLNTYDMIWVRQAPGKGLEWVGIITYSGSRYYANWAKGRFTISKDNTKNTVYLQMNSLRAEDTAVYYCARDYMSGSHLWGQGTLVTVSSGGGGSGGGGSGGGGSGGGGSAYDMTQSPSSVSASVGDRVTIKCQASEDIYSFLAWYQQKPGKAPKLLIHSASSLASGVPSRFSGSGSGTDFTLTISSLQPEDFATYYCQQGYGKNNVDNAFGGGTKVEIK
# notes: scFv at the C-terminus of an Fc; The Fc part is not specified; also called PL23006; not shown: The Fc part and the linker joining it to the scFv
# B7: PL231H2 mAb (antibody, V domains shown)
# VH: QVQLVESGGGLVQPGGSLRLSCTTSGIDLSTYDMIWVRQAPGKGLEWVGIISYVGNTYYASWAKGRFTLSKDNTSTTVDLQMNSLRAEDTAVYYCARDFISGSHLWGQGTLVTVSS
# VL: AYDMTQSPSSVSASVGDRVTINCQASESISSFLSWYQQKPGKAPKLLIFSASTLASGVPSRFSGSGSGTDFTLTISSLQPEDFATYYCQQGYSKSNVDNAFGGGTKVEIK
# notes: as for B2
# B8: PL004B9 Fc-scFv (Fc fusion, not shown: a dimerising Fc or GST; small tags and cut ends)
# scFv: EVQLVESGGGLVQPGGSLRLSCTVSGIDLSVINMGWVRQAPGKGLEWIGTITYVGNTYYASWAKGRFTISKTSTTVDLKITSPTTEDTAVYYCARESGTIYYSYFNLWGQGTLVTVSSGGGGSGGGGSGGGGSGGGGSAFELTQSPSSLSASVGDRVTIKCQASESISNYLSWYQQIPGKVPKLLIYYASNLASGVPSRFSGSGSGTDFTLTISSLQPEDVATYYCQSYYGGGSAYTFGGGTKVEIK
# notes: scFv at the C-terminus of an Fc
# B9: PL221G5 IgG1 null (antibody, V domains shown)
# VH: EVQLLESGGGLVQPGGSLRLSCAASGFSFSSGYDMCWVRQAPGKGLEWIACIAAGSAGITYDANWAKGRFTISRDNSKNTLYLQMNSLRAEDTAVYYCARSAFSFDYAMDLWGQGTLVTVSS
# VL: DIQMTQSPSTLSASVGDRVTITCQASQSISSHLNWYQQKPGKAPKLLIYKASTLASGVPSRFSGSGSGTEFTLTISSLQPDDFATYYCQQGYSWGNVDNVFGGGTKVEIKR
# Molecular target: T1, PD-1 antigen expressed on the surface of cells (human, UniProt Q15116 25-288)
# T1 construct: whole, on cells; also called PD-1 receptor; CHO cell line expressing PD-1 antigen
# Assay: Flow cytometry on CHO cells expressing PD-1, Alexa Fluor 647 anti-human secondary
# Method: (§1) Binding of the bispecific antibodies and their components to PD-1 antigen expressed on the surface of CHO cell line was assessed using FACS method. The bispecific antibodies were incubated with CHO cell line expressing PD-1 antigen and then detected with secondary anti-human antibodies directly conjugated to Alexa Fluor 647 fluorochrome. Cellular binding of the test antibodies was analyzed on a flow cytometer BD LSRFortessa.
# T1 sequence (Q15116 25-288): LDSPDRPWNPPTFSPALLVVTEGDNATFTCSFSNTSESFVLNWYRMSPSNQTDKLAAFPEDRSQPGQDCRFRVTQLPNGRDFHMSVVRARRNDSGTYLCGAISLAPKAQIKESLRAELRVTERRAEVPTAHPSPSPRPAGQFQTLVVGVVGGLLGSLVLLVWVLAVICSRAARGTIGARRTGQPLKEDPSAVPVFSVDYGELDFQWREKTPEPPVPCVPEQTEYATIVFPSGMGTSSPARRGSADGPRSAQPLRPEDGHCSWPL
row,Binder,EC50 (read off the curve)
1,B1,~1000 pM

# Molecular target: T2, PD-L1 recombinant protein (human, UniProt Q9NZQ7 19-238, limits assumed)
# T2 construct: also called PD-L1 antigen
# Assay: ForteBio Octet RED96, PD-L1 immobilised, antibody in solution
# Text: The antigen was immobilized on the sensor chip surface and the tested antibodies were flown over the immobilized antigens.
# T2 sequence (Q9NZQ7 19-238 limits assumed): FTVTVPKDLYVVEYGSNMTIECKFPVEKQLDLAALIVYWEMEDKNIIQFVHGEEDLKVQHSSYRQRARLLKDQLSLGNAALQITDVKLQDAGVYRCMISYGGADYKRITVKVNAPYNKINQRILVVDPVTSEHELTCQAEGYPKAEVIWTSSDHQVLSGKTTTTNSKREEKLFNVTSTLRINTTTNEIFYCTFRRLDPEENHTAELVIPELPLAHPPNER
Binder,Kd,koff,kon
B2,1370 pM,0.000695 s⁻¹,508000 M⁻¹ s⁻¹
B3,483 pM,0.000276 s⁻¹,572000 M⁻¹ s⁻¹
B4,412 pM,0.000171 s⁻¹,414000 M⁻¹ s⁻¹
B5,769 pM,0.000468 s⁻¹,609000 M⁻¹ s⁻¹
B6,868 pM,0.000362 s⁻¹,418000 M⁻¹ s⁻¹
B7,781 pM,0.000391 s⁻¹,501000 M⁻¹ s⁻¹
B8,1540 pM,0.000471 s⁻¹,307000 M⁻¹ s⁻¹

# Molecular target: T1, PD-1 antigen expressed on the surface …
# Assay: Flow cytometry on CHO cells expressing PD-1, Alexa Fluor 647 anti-human secondary. The value is printed beside the curves without a name; the text speaks of a KD. It is assigned to the lower, right curve (triangles) by its position.
# Method: as §1
row,Binder,Kd
1,B1,1040 pM

# Molecular target: PD-L1 on CHO-PD-L1 cell line (human, UniProt Q9NZQ7 19-290)
# Assay: cell-based or functional assay
# Chain of PD-L1 on CHO-PD-L1 cell line (Q9NZQ7 19-290): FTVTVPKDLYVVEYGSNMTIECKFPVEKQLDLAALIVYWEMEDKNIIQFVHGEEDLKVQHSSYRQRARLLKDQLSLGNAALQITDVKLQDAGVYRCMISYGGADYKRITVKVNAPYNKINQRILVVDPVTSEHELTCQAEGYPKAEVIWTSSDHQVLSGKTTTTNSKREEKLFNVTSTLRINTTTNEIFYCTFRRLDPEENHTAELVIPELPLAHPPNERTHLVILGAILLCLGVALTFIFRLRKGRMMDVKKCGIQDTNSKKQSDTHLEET
row,Binder,"EC50 (read off the curve), NFAT-luciferase reporter, Jurkat PD-1 cells with CHO-PD-L1 cells"
1,B9,~300 pM
